B1: Keratin, type I cuticular Ha8 (Homo sapiens), O76015 (parent)
chain: MTSSYSSSSCPLGCTMAPGARNVSVSPIDIGCQPGAEANIAPMCLLANVAHANRVRVGSTPLGRPSLCLPPTCHTACPLPGTCHIPGNIGICGAYGENTLNGHEKETMQFLNDRLANYLEKVRQLEQENAELEATLLERSKCHESTVCPDYQSYFHTIEELQQKILCSKAENARLIVQIDNAKLAADDFRIKLESERSLRQLVEADKCGTQKLLDDATLAKADLEAQQESLKEEQLSLKSNHEQEVKILRSQLGEKLRIELDIEPTIDLNRVLGEMRAQYEAMLETNRQDVEQWFQAQSEGISLQDMSCSEELQCCQSEILELRCTVNALEVERQAQHTLKDCLQNSLCEAEDRFGTELAQMQSLISNVEEQLSEIRADLERQNQEYQVLLDVKTRLENEIATYRNLLESEDCKLPCNPCSTSPSCVTAPCAPRPSCGPCTTCGPTCGASTTGSRF
partner: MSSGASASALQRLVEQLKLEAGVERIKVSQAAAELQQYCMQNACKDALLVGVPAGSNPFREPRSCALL
B2: Serine/threonine-protein phosphatase 6 regulatory ankyrin repeat subunit B (Homo sapiens), Q8N8A2 (parent)
chain: MAVLKLTDQPPLVQAIFSGDPEEIRMLIHKTEDVNTLDSEKRTPLHVAAFLGDAEIIELLILSGARVNAKDNMWLTPLHRAVASRSEEAVQVLIKHSADVNARDKNWQTPLHVAAANKAVKCAEVIIPLLSSVNVSDRGGRTALHHAALNGHVEMVNLLLAKGANINAFDKKDRRALHWAAYMGHLDVVALLINHGAEVTCKDKKGYTPLHAAASNGQINVVKHLLNLGVEIDEINVYGNTALHIACYNGQDAVVNELIDYGANVNQPNNNGFTPLHFAAASTHGALCLELLVNNGADVNIQSKDGKSPLHMTAVHGRFTRSQTLIQNGGEIDCVDKDGNTPLHVAARYGHELLINTLITSGADTAKCGIHSMFPLHLAALNAHSDCCRKLLSSGFEIDTPDKFGRTCLHAAAAGGNVECIKLLQSSGADFHKKDKCGRTPLHYAAANCHFHCIETLVTTGANVNETDDWGRTALHYAAASDMDRNKTILGNAHDNSEELERARELKEKEATLCLEFLLQNDANPSIRDKEGYNSIHYAAAYGHRQCLELLLERTNSGFEESDSGATKSPLHLAAYNGHHQALEVLLQSLVDLDIRDEKGRTALDLAAFKGHTECVEALINQGASIFVKDNVTKRTPLHASVINGHTLCLRLLLEIADNPEAVDVKDAKGQTPLMLAVAYGHIDAVSLLLEKEANVDTVDILGCTALHRGIMTGHEECVQMLLEQEVSILCKDSRGRTPLHYAAARGHATWLSELLQMALSEEDCCFKDNQGYTPLHWACYNGNENCIEVLLEQKCFRKFIGNPFTPLHCAIINDHGNCASLLLGAIDSSIVSCRDDKGRTPLHAAAFADHVECLQLLLRHSAPVNAVDNSGKTALMMAAENGQAGAVDILVNSAQADLTVKDKDLNTPLHLACSKGHEKCALLILDKIQDESLINEKNNALQTPLHVAARNGLKVVVEELLAKGACVLAVDENASRSNGPRSTPGTAVQKEE
B3: Tuftelin-interacting protein 11 (Homo sapiens), Q9UBB9 (parent)
chain: MSLSHLYRDGEGRIDDDDDERENFEITDWDLQNEFNPNRQRHWQTKEEATYGVWAERDSDDERPSFGGKRARDYSAPVNFISAGLKKGAAEEAELEDSDDEEKPVKQDDFPKDFGPRKLKTGGNFKPSQKGFAGGTKSFMDFGSWERHTKGIGQKLLQKMGYVPGRGLGKNAQGIINPIEAKQRKGKGAVGAYGSERTTQSMQDFPVVDSEEEAEEEFQKELSQWRKDPSGSKKKPKYSYKTVEELKAKGRISKKLTAPQKELSQVKVIDMTGREQKVYYSYSQISHKHNVPDDGLPLQSQQLPQSGKEAKAPGFALPELEHNLQLLIDLTEQEIIQNDRQLQYERDMVVNLFHELEKMTEVLDHEERVISNLSKVLEMVEECERRMQPDCSNPLTLDECARIFETLQDKYYEEYRMSDRVDLAVAIVYPLMKEYFKEWDPLKDCTYGTEIISKWKSLLENDQLLSHGGQDLSADAFHRLIWEVWMPFVRNIVTQWQPRNCDPMVDFLDSWVHIIPVWILDNILDQLIFPKLQKEVENWNPLTDTVPIHSWIHPWLPLMQARLEPLYSPIRSKLSSALQKWHPSDSSAKLILQPWKDVFTPGSWEAFMVKNIVPKLGMCLGELVINPHQQHMDAFYWVIDWEGMISVSSLVGLLEKHFFPKWLQVLCSWLSNSPNYEEITKWYLGWKSMFSDQVLAHPSVKDKFNEALDIMNRAVSSNVGAYMQPGARENIAYLTHTERRKDFQYEAMQERREAENMAQRGIGVAASSVPMNFKDLIETKAEEHNIVFMPVIGKRHEGKQLYTFGRIVIYIDRGVVFVQGEKTWVPTSLQSLIDMAK
partner: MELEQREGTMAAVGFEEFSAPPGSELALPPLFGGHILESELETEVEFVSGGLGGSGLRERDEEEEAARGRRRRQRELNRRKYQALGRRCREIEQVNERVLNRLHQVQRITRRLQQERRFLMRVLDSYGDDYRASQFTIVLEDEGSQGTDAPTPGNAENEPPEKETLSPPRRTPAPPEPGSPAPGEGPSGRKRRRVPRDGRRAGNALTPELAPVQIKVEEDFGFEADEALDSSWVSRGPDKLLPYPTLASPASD
B4: X antigen family member 3 (Homo sapiens), Q8WTP9 (parent)
chain: MIWRGRSTYRPRPRRSVPPPELIGPMLEPGDEEPQQEEPPTESRDPAPGQEREEDQGAAETQVPDLEADLQELSQSKTGGECGNGPDDQGKILPKSEQFKMPEGGDRQPQV
partner: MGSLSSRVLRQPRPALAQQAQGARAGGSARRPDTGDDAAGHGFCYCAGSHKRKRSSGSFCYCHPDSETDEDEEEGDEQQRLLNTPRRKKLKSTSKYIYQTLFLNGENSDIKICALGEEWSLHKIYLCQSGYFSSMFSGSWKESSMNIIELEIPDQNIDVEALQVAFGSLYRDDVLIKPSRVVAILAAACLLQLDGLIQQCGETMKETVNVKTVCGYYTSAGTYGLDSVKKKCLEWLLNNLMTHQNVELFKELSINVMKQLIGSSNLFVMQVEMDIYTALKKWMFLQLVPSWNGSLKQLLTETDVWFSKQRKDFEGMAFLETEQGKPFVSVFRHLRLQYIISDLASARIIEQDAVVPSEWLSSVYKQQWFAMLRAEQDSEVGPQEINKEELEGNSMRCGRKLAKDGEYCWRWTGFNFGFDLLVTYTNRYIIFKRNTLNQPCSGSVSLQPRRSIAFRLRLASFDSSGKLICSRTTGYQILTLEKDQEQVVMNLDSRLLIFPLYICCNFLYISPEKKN
B5: Prolyl 4-hydroxylase subunit alpha-3 (Homo sapiens), Q7Z4N8 (parent)
chain: MGPGARLAALLAVLALGTGDPERAAARGDTFSALTSVARALAPERRLLGLLRRYLRGEEARLRDLTRFYDKVLSLHEDSTTPVANPLLAFTLIKRLQSDWRNVVHSLEASENIRALKDGYEKVEQDLPAFEDLEGAARALMRLQDVYMLNVKGLARGVFQRVTGSAITDLYSPKRLFSLTGDDCFQVGKVAYDMGDYYHAIPWLEEAVSLFRGSYGEWKTEDEASLEDALDHLAFAYFRAGNVSCALSLSREFLLYSPDNKRMARNVLKYERLLAESPNHVVAEAVIQRPNIPHLQTRDTYEGLCQTLGSQPTLYQIPSLYCSYETNSNAYLLLQPIRKEVIHLEPYIALYHDFVSDSEAQKIRELAEPWLQRSVVASGEKQLQVEYRISKSAWLKDTVDPKLVTLNHRIAALTGLDVRPPYAEYLQVVNYGIGGHYEPHFDHATSPSSPLYRMKSGNRVATFMIYLSSVEAGGATAFIYANLSVPVVRNAALFWWNLHRSGEGDSDTLHAGCPVLVGDKWVANKWIHEYGQEFRRPCSSSPED
partner: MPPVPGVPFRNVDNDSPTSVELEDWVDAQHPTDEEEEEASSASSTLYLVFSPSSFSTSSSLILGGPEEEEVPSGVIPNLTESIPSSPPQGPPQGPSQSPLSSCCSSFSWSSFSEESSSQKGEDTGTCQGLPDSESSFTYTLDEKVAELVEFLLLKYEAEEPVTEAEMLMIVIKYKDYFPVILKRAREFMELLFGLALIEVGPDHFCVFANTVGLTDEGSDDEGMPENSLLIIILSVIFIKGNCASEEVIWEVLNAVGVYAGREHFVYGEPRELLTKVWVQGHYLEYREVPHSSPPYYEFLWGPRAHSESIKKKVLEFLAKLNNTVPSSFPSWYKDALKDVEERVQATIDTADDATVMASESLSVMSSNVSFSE
B6: E3 ubiquitin-protein ligase TRIM69 (Homo sapiens), Q86WT6 (parent)
chain: MEVSTNPSSNIDPGDYVEMNDSITHLPSKVVIQDITMELHCPLCNDWFRDPLMLSCGHNFCEACIQDFWRLQAKETFCPECKMLCQYNNCTFNPVLDKLVEKIKKLPLLKGHPQCPEHGENLKLFSKPDGKLICFQCKDARLSVGQSKEFLQISDAVHFFTEELAIQQGQLETTLKELQTLRNMQKEAIAAHKENKLHLQQHVSMEFLKLHQFLHSKEKDILTELREEGKALNEEMELNLSQLQEQCLLAKDMLVSIQAKTEQQNSFDFLKDITTLLHSLEQGMKVLATRELISRKLNLGQYKGPIQYMVWREMQDTLCPGLSPLTLDPKTAHPNLVLSKSQTSVWHGDIKKIMPDDPERFDSSVAVLGSRGFTSGKWYWEVEVAKKTKWTVGVVRESIIRKGSCPLTPEQGFWLLRLRNQTDLKALDLPSFSLTLTNNLDKVGIYLDYEGGQLSFYNAKTMTHIYTFSNTFMEKLYPYFCPCLNDGGENKEPLHILHPQ

Variants of: B1
Settings: with gbg10_human GNG10, P50151

Row | Variant | effect of a mutation on the interaction
1 | A205S | with no effect

Variants of: B2
Settings: with wwp2_human WWP2, O00308
wwp2_human WWP2, O00308, sequence (O00308 whole entry): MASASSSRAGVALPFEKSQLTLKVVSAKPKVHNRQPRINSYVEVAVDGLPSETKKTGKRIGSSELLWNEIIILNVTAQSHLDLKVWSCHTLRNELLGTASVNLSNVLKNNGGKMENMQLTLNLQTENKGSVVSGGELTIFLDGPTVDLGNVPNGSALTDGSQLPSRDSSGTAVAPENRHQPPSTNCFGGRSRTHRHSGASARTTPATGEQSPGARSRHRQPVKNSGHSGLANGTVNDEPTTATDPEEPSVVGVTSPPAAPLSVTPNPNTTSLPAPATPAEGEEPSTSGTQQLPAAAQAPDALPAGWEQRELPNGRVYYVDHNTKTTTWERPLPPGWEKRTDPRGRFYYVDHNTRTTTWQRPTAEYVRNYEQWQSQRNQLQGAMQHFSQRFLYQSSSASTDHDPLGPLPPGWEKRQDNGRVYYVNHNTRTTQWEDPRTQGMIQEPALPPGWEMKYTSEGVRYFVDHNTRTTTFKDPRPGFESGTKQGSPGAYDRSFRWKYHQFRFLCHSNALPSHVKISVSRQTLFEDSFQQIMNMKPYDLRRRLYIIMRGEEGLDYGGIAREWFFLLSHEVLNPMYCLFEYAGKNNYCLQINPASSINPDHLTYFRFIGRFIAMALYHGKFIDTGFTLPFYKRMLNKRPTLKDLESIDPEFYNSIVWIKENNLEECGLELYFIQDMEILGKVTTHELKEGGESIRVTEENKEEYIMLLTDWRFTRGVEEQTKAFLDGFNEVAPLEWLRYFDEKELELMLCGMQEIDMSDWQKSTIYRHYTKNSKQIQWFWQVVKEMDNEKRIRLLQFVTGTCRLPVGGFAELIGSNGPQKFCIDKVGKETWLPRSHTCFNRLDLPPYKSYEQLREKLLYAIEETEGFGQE

Row | Variant | effect of a mutation on the interaction
2 | R80W | disrupting interaction strength

Variants of: B3
Settings: with tfpt_human TFPT

Row | Variant | effect of a mutation on the interaction
3 | R8Q | with no effect
4 | S688L | with no effect

Variants of: B4
Settings: with gmcl1_human GMCL1, Q96IK5

Row | Variant | effect of a mutation on the interaction
5 | I92F | with no effect

Variants of: B5
Settings: with magc2_human MAGEC2, Q9UBF1

Row | Variant | effect of a mutation on the interaction
6 | S378L | disrupting interaction strength

Variants of: B6
Settings: with at5g1_human ATP5MC1, P05496
at5g1_human ATP5MC1, P05496, sequence (P05496 whole entry): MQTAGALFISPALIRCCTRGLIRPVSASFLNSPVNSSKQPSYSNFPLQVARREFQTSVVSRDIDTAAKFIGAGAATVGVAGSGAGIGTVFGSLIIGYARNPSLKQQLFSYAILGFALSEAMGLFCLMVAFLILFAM

Row | Variant | effect of a mutation on the interaction
7 | A190V | with no effect
8 | N239K | disrupting interaction strength
9 | I399F | with no effect

Variants of: B6
Settings: with maga4_human MAGEA4, P43358
maga4_human MAGEA4, P43358, sequence (P43358 whole entry): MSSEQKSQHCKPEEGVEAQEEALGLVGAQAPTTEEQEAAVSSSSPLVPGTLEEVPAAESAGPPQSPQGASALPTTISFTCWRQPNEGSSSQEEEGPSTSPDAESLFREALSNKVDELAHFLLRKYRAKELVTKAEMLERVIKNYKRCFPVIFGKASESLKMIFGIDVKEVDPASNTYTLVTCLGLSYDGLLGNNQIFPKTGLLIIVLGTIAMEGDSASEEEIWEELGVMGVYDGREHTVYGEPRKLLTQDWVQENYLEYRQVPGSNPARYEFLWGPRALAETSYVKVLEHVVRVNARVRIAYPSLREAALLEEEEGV

Row | Variant | effect of a mutation on the interaction
10 | A190V | with no effect
11 | N239K | with no effect
12 | I399F | with no effect

— IntAct's records for PubMed 31515488
